From patent US20230133118A1, “COMPOSITIONS AND METHODS FOR TREATING CANCER” (Adagene AG, priority 2020, published 2023)

Legend:
4T1 breast cancer cells = assay: 4T1 breast cancer model, ADG106 with docetaxel; format: in vivo, BALB/c mice; details: 5 mg/kg; ADG106 i.p. twice a week 4 doses, Docetaxel i.v. once a week 3 doses
Text: Tumor growth was monitored twice weekly and is reported as mean tumor volume ±SEM over time.

Lewis lung cancer cells = assay: Lewis lung cancer model, ADG106 with cisplatin; format: in vivo, C57BL/6 mice; details: 5 mg/kg i.p.
Text: C57BL/6 mice (n=8 per group, female, 6-8 weeks old) were transplanted subcutaneously with 5×10^5 Lewis lung cancer cells. […] Tumor growth was monitored twice weekly and reported as mean tumor volume ±SEM over time.

LLC-CD20 cells = assay: LLC-CD20 lung cancer model, ADG106 with rituximab; format: in vivo, C57BL/6 mice; details: 10 mg/kg i.p. twice a week for 3 weeks
Text: C57BL/6 mice (n=6 per group, female, 6-8 weeks old) were transplanted subcutaneously with 5×10^5 LLC-CD20 cells, a Lewis lung cancer cell line expressing CD20. […] Tumor growth was monitored twice weekly and reported as mean tumor volume ±SEM over time.

CD137 [1] = target: T1, CD137 (Homo sapiens, UniProt Q07011); assay: Cellular NFκB reporter gene assay (CD137-expressing NFκB-Luc Jurkat reporter cells); format: cell-based; parameters: expressed in transfected cells; host or cells: NFκB-Luc Jurkat reporter cells (with or without co-cultured CHO-K1 cells expressing human FcγRIIb)
Protocol: The CD137-expressing NFκB-Luc Jurkat reporter cells were stimulated with the anti-CD137 antibodies in the absence (left panel) or presence (right panel) of co-cultured CHO-K1 cell expressing human FcγRIIb. Luciferase activity was measured by bioluminescence assay.

CD137 [2] = target: T1, CD137; assay: Receptor occupancy calculated from drug plasma concentration and KD; details: 0.1 mg/kg, MTD for Urelumab
CD137 [3] = target: T1, CD137; assay: Binding affinity (KD) by surface plasmon resonance (SPR); details: read-out: binding affinity (KD)

T1 sequence (Q07011 24-255): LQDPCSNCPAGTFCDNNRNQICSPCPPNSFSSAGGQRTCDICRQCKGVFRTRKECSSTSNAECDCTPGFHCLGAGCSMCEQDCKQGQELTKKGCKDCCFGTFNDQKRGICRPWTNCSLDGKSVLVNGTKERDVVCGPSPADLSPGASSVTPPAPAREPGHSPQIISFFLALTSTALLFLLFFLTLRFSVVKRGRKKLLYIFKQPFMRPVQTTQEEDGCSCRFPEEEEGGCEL

Question: Which “anti-tumor activity, mono-therapy” value (4T1 breast cancer cells) does the source give for `CC(=O)O[C@@]12CO[C@@H]1C[C@H](O)[C@@]1(C)C(=O)[C@H](O)C3=C(C)[C@@H](OC(=O)[C@H](O)[C@@H](NC(=O)OC(C)(C)C)c4ccccc4)C[C@@](O)([C@@H](OC(=O)c4ccccc4)[C@H]21)C3(C)C` [Docetaxel, docetaxel, reference compound] here?
Answer: marginal anti-tumor activity

Question: Which “anti-tumor activity, monotherapy” value (Lewis lung cancer cells) does the source give for `N.N.[Cl][Pt][Cl]` [cisplatin, reference compound] here?
Answer: showed anti-tumor activity

Question: “Rituximab: anti-CD20 antibody [reference compound]” was tested. Which “tumor growth, single agent” value (LLC-CD20 cells) did it give?
Answer: only weakly inhibited tumor growth

Question: How did the “human CD137 agonism without crosslinking” value (CD137 [1]; no crosslinking) turn out when “Urelumab: clinical reference anti-CD137 mAb [reference compound]” was run?
Answer: function as a human CD137 agonist without crosslinking

Question: And the “human CD137 agonism following crosslinking” value (CD137 [1]; with crosslinking)?
Answer: function as agonists

Question: And the “Calculated Receptor Occupancy” value (CD137 [2])?
Answer: 64%

Question: What about the Kd (CD137 [3]) of the same molecule?
Answer: 9.6 nM
